Data taken from publication PMC10724065, “Evolution of a plant growth-regulatory protein interaction specificity” (Nature Plants, 2023).

B1: Arabidopsis thaliana AtSLY1 (yeast bait fusion) [Arabidopsis thaliana] / A. thaliana GAI (yeast prey fusion) [Arabidopsis thaliana] (parent complex)
chain 1: MKRSTTDSDLAGDAHNETNKKMKSTEEEEIGFSNLDENLVYEVLKHVDAKTLAMSSCVSKIWHKTAQDERLWELICTRHWTNIGCGQNQLRSVVLALGGFRRLHSLYLWPLSKPNPRARFGKDELKLTLSLLSIRYYEKMSFTKRPLPESK
chain 2: MKRDHHHHHHQDKKTMMMNEEDDGNGMDELLAVLGYKVRSSEMADVAQKLEQLEVMMSNVQEDDLSQLATETVHYNPAELYTWLDSMLTDLNPPSSNAEYDLKAIPGDAILNQFAIDSASSSNQGGGGDTYTTNKRLKCSNGVVETTTATAESTRHVVLVDSQENGVRLVHALLACAEAVQKENLTVAEALVKQIGFLAVSQIGAMRKVATYFAEALARRIYRLSPSQSPIDHSLSDTLQMHFYETCPYLKFAHFTANQAILEAFQGKKRVHVIDFSMSQGLQWPALMQALALRPGGPPVFRLTGIGPPAPDNFDYLHEVGCKLAHLAEAIHVEFEYRGFVANTLADLDASMLELRPSEIESVAVNSVFELHKLLGRPGAIDKVLGVVNQIKPEIFTVVEQESNHNSPIFLDRFTESLHYYSTLFDSLEGVPSGQDKVMSEVYLGKQICNVVACDGPDRVERHETLSQWRNRFGSAGFAAAHIGSNAFKQASMLLALFNGGEGYRVEESDGCLMLGWHTRPLIATSAWKLSTN

Variants of: B1
Experiment: pull-down (IP: His, immunoblot); parent: 1

Row | ratio to parent | Variant
1 | 1.41 | chain 1 MKRSTTDSDLAGDAHNETNKKMKSTEEEEIGFSNLDENLVYEVLKHVDAKTLAMSSCVSKIWHKTAQDERLWELICTRHWTNIDCGQNQLRSVVLALGGFRRLHSLYLWPLSKPNPRARFGKDELKLTLSLLSIRYYEKMSFTKRPLPESK [chain 1 G84D]
2 | 3.05 | chain 1 MKRSTTDSDLAGDAHNETNKKMKSTEEEEIGFSNLDENLVYEVLKHVDAKTLAMSSCVSKIWHKTAQDERLWELICTRHWTNIGCGQNQLRSVVLALGGFRRLYSLYLWPLSKPNPRARFGKDELKLTLSLLSIRYYEKMSFTKRPLPESK [chain 1 H104Y]
3 | 2.36 | chain 1 MKRSTTDSDLAGDAHNETNKKMKSTEEEEIGFSNLDENLVYEVLKHVDAKTLAMSSCVSKIWHKTAQDERLWELICTRHWTNIGCGQNQLRSVVLALGGFRRLHSLYLWPLSKPNPRARFGKDELKLALSLLSIRYYEKMSFTKRPLPESK [chain 1 T128A]

Variants of: B1
Experiment: yeast 2-hybrid; parent: 0.3; read off a plot

Row | response | Variant
4 | ~110 β-galactosidase units | chain 1 MKRSTTDSDLAGDAHNETNKKMKSTEEEEIGFSNLDENLVYEVLKHVDAKTLAMSSCVSKIWHKTAQDERLWELICTRHWTNIGCGQNQLRSVVLALGGFRRLYSLYLWPLSKPNPRARFGKDELKLTLSLLSIRYYEKMSFTKRPLPESK [chain 1 H104Y]
5 | ~100 β-galactosidase units | chain 1 MKRSTTDSDLAGDAHNETNKKMKSTEEEEIGFSNLDENLVYEVLKHVDAKTLAMSSCVSKIWHKTAQDERLWELICTRHWTNIGCGQNQLRSVVLALGGFRRLFSLYLWPLSKPNPRARFGKDELKLTLSLLSIRYYEKMSFTKRPLPESK [chain 1 H104F]

Variants of: B1
Experiment: yeast 2-hybrid; parent: 0.3; read off a plot
Remark: another data set of the same source

Row | response | Variant
6 | ~120 β-galactosidase units | chain 1 MKRSTTDSDLAGDAHNETNKKMKSTEEEEIGFSNLDENLVYEVLKHVDAKTLAMSSCVSKIWHKTAQDERLWELICTRHWTNIGCGQNQLRSVVLALGGFRRLYSLYLWPLSKPNPRARFGKDELKLTLSLLSIRYYEKMSFTKRPLPESK [chain 1 H104Y]
7 | ~15 β-galactosidase units | chain 1 E138K
8 | ~86 β-galactosidase units | chain 1 MKRSTTDSDLAGDAHNETNKKMKSTEEEEIGFSNLDENLVYEVLKHVDAKTLAMSSCVSKIWHKTAQDERLWELICTRHWTNIGCGQNQLRSVVLALGGFRRLHSLYLWPLSKPNPRARFGKDELKLALSLLSIRYYEKMSFTKRPLPESK [chain 1 T128A]
9 | ~44 β-galactosidase units | chain 1 MKRSTTDSDLAGDAHNETNKKMKSTEEEEIGFSNLDENLVYEVLKHVDAKTLAMSSCVSKIWHKTAQDERLWELICTRHWTNIGCGQNQLRSVVLALGGFRRLHSLYLWPLSKPNPRARFGKDELKLSLSLLSIRYYEKMSFTKRPLPESK [chain 1 T128S]

Variants of: B1
Experiment: yeast 2-hybrid; parent: 0.35; read off a plot

Row | response | Variant
10 | ~99 β-galactosidase units | chain 1 MKRSTTDSDLAGDAHNETNKKMKSTEEEEIGFSNLDENLVYEVLKHVDAKTLAMSSCVSKIWHKTAQDERLWELICTRHWTNIGCGQNQLRSVVLALGGFRRLYSLYLWPLSKPNPRARFGKDELKLTLSLLSIRYYEKMSFTKRPLPESK [chain 1 H104Y]
11 | ~17 β-galactosidase units | chain 1 E138K
12 | ~77 β-galactosidase units | chain 1 MKRSTTDSDLAGDAHNETNKKMKSTEEEEIGFSNLDENLVYEVLKHVDAKTLAMSSCVSKIWHKTAQDERLWELICTRHWTNIGCGQNQLRSVVLALGGFRRLHSLYLWPLSKPNPRARFGKDELKLALSLLSIRYYEKMSFTKRPLPESK [chain 1 T128A]

Variants of: B1
Experiment: pull-down (IP: His, immunoblot); without GST-GID1C, without GA3 (GAI in A Form); parent: 1

Row | ratio to parent | Variant
13 | 5.65 | chain 1 MKRSTTDSDLAGDAHNETNKKMKSTEEEEIGFSNLDENLVYEVLKHVDAKTLAMSSCVSKIWHKTAQDERLWELICTRHWTNIGCGQNQLRSVVLALGGFRRLYSLYLWPLSKPNPRARFGKDELKLTLSLLSIRYYEKMSFTKRPLPESK [chain 1 H104Y]
14 | 1.86 | chain 1 E138K
15 | 2.27 | chain 1 MKRSTTDSDLAGDAHNETNKKMKSTEEEEIGFSNLDENLVYEVLKHVDAKTLAMSSCVSKIWHKTAQDERLWELICTRHWTNIGCGQNQLRSVVLALGGFRRLHSLYLWPLSKPNPRARFGKDELKLALSLLSIRYYEKMSFTKRPLPESK [chain 1 T128A]

Variants of: B1
Experiment: pull-down (IP: His, immunoblot); with GST-GID1C, with GA3 (GAI in A + A' Forms); parent: 2.41

Row | response | Variant
16 | 11.8 relative anti-MBP band intensity (SLY1 without GST-GID1C and GA3 = 1.00) | chain 1 MKRSTTDSDLAGDAHNETNKKMKSTEEEEIGFSNLDENLVYEVLKHVDAKTLAMSSCVSKIWHKTAQDERLWELICTRHWTNIGCGQNQLRSVVLALGGFRRLYSLYLWPLSKPNPRARFGKDELKLTLSLLSIRYYEKMSFTKRPLPESK [chain 1 H104Y]
17 | 3.88 relative anti-MBP band intensity (SLY1 without GST-GID1C and GA3 = 1.00) | chain 1 E138K
18 | 9.37 relative anti-MBP band intensity (SLY1 without GST-GID1C and GA3 = 1.00) | chain 1 MKRSTTDSDLAGDAHNETNKKMKSTEEEEIGFSNLDENLVYEVLKHVDAKTLAMSSCVSKIWHKTAQDERLWELICTRHWTNIGCGQNQLRSVVLALGGFRRLHSLYLWPLSKPNPRARFGKDELKLALSLLSIRYYEKMSFTKRPLPESK [chain 1 T128A]
